Literature values as cited in PMC3569056.

Biological target: Cys22 (UniProt position 23, FIKPTCPYCRR)
Test: chemical modification

Substance: Glutaredoxin 1 (hGrx1, thioltransferase) (Homo sapiens)
- pKa: 3.5
